Here are results for one molecule from US20130034493A1 (RESEARCH DEVELOPMENT FOUNDATION, published 2013).

The target of this assay is T1, recombinant BMP4 (rBMP4) (mouse, UniProt P21275 293-408, limits assumed).
T1 sequence (looked up): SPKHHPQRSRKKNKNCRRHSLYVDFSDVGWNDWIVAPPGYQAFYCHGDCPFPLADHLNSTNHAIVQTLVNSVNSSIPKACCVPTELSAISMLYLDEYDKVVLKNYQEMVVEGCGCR
The assay can be described thus: cell-based or functional assay.

B1: mouse recombinant Olfml3-FLAG tagged protein (rOlfml3-FLAG) (other, not shown: small tags and cut ends)
chain: QQHHLVEYMERRLAALEERLAQCQDQSSRHAAELRDFKNKMLPLLEVAEKERETLRTEADSISGRVDRLEREVDYLETQNPALPCVELDEKVTGGPGAKGKGRRNEKYDMVTDCSYTVAQVRSMKILKRFGGSVGLWTKDPLGPAEKIYVLDGTQNDTAFVFPRLRDFTLAMAARKASRIRVPFPWVGTGQLVYGGFLYYARRPPGGPGGGGELENTLQLIKFHLANRTVVDSSVFPAESLIPPYGLTADTYIDLAADEEGLWAVYATRDDDRHLCLAKLDPQTLDTEQQWDTPCPRENAEAAFVICGTLYVVYNTRPASRARIQCSFDASGTLAPERAALSYFPRRYGAHASLRYNPRERQLYAWDDGYQIVYKLEMKKKEEEV
Turning to B1, the “ERK1/2 phosphorylation in HUVECs” value is 5 fold.
